# Laboratory results from patent publication US20220242943A1 (Regeneron, published 2022).
# Read-outs that look alike come from different tables or passages of the source.
# B1: mouse PDGF-BB (ligand, UniProt P31240 82-190, looked up)
# chain: SLGSLAAAEPAVIAECKTRTEVFQISRNLIDRTNANFLVWPPCVEVQRCSGCCNNRNVQCRASQVQMRPVQVRKIEIVRKKPIFKKATVTLEDHLACKCETIVTPRPVT
# B2: H4H13132P (antibody, human IgG4 S228P, kappa, V domains shown)
# VH: QVQLVQSGAEVKKPGSSVKVSCKASGGTFSSYAISWVRQAPGQGLEWMGGIIPIFGTANYAQKFQGRVTITTDESTSTAYMELSSLRSEDTAVYYCAREGYGDYYFGMDVWGQGTTVTVSS
# VL: not shown
# notes: also called REGN15171; anti-PDGF-B antibody 2
# B3: H4H13132P (antibody, human IgG4 S228P, kappa, V domains shown)
# VH: QVQLVQSGAEVKKPGSSVKVSCKASGGTFSSYAISWVRQAPGQGLEWMGGIIPIFGTANYAQKFQGRVTITTDESTSTAYMELSSLRSEDTAVYYCAREGYGDYYFGMDVWGQGTTVTVSS
# VL: not shown
# notes: also called REGN15171
# B4: Sino Biologics cynomolgus PDGF-BB Fc tag (Fc fusion, cynomolgus monkey, not shown: a dimerising Fc or GST)
# chain: SLGSLTVAEPAMIAECKTRTEVFEISRRLIDRTNANFLVWPPCVEVQRCSGCCNNRNVQCRPTQVQLRPVQVRKIEIVRKKPIFKKATVTLEDHLACKCETVAAARPVT
# B5: cynomolgus monkey (Macaca fascicularis) PDGF-BB (ligand)
# chain: SLGSLTVAEPAMIAECKTRTEVFEISRRLIDRTNANFLVWPPCVEVQRCSGCCNNRNVQCRPTQVQLRPVQVRKIEIVRKKPIFKKATVTLEDHLACKCETVAAARPVT
# B6: H4H13145P (antibody, human IgG4 S228P, kappa, V domains shown)
# VH: QVQLVQSGTEVKKPGASVKVSCKASGYTYGAYAISWVRQAPGQGLEWMGWISAYNGNTNYAQKFQDRVTMTTDTSTNTAYMELRGLKSDDTAVYFCARAWNSFDYWGQGTLVTVSS
# VL: not shown
# notes: also called REGN13335; anti-PDGF-B antibody 1
# B7: H4H13145P (antibody, human IgG4 S228P, kappa, V domains shown)
# VH: QVQLVQSGTEVKKPGASVKVSCKASGYTYGAYAISWVRQAPGQGLEWMGWISAYNGNTNYAQKFQDRVTMTTDTSTNTAYMELRGLKSDDTAVYFCARAWNSFDYWGQGTLVTVSS
# VL: not shown
# notes: also called REGN13335
# What was measured:
# [1] = target: T1, human PDGFRβ on HEK293/SRE-luc/hPDGFRβ cells (human, UniProt P09619 33-1106); assay: cell-based or functional assay
# T1 sequence (P09619 33-1106): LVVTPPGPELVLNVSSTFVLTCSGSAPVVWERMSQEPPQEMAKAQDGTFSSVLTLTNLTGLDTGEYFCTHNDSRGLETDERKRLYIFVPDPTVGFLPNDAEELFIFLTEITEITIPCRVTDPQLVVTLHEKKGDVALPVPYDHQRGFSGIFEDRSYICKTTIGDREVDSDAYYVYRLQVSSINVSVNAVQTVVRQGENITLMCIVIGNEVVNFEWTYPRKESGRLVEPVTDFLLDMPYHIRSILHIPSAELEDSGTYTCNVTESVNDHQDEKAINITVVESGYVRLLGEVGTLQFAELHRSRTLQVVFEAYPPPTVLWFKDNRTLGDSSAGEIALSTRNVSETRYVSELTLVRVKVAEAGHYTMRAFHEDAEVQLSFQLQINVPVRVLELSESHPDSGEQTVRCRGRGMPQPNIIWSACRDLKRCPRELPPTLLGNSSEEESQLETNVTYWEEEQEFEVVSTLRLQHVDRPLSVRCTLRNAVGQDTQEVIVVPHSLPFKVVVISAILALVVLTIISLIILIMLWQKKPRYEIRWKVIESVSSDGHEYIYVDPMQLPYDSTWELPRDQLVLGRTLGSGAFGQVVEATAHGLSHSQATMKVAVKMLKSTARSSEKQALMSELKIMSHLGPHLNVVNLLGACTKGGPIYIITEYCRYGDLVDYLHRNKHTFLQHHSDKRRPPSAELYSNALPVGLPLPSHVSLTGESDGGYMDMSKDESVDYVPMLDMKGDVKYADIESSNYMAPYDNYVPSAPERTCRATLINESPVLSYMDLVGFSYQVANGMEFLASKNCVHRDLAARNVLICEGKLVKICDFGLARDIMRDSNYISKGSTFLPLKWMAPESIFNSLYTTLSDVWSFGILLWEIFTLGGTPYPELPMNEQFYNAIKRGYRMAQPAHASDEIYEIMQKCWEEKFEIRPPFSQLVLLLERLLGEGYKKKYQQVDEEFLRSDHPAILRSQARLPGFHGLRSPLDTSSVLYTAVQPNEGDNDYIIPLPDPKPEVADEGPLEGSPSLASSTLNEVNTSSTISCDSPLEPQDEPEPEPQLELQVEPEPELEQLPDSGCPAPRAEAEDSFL
# [2] = target: T1, human PDGFRβ on HEK293/SRE-luc/hPDGFRβ …; assay: cell-based or functional assay; remark: listed apart in the source
# human PDGF-AB [3] = target: T2, human PDGF-AB (human, UniProt P04085 87-211); assay: cell-based or functional assay
# mouse PDGF-BB [4] = target: B1; assay: SPR, captured mAb, 37 C
# Description: (§1) The equilibrium dissociation constants (KD values) for human and mouse PDGF-B binding to purified anti-PDGF-B monoclonal antibodies of this disclosure were determined using a real-time surface plasmon resonance (SPR) biosensor instrument, MASS-1. All binding studies were performed in 10 mM HEPES, 300 mM NaCl, 3 mM EDTA, 1 μg/mL Heparin, and 0.05% v/v Surfactant Tween-20, pH 7.4 (HBS-T) running buffer at 25° C. and 37° C. […] The HCA sensor surface was first derivatized by amine coupling the monoclonal mouse anti-human Fc antibody (GE, #BR100839) and anti-PDGF-B monoclonal antibodies were individually captured. […] Kinetic association (kₐ) and dissociation (kd) rate constants were determined by fitting the real-time binding sensorgrams to a 1:1 binding model with mass transport limitation using Scrubber 2.0c software. Binding dissociation equilibrium constant (KD) and dissociative half-life (t½) for different anti-PDGF-B monoclonal antibodies were calculated from the kinetic rate constants as: […]
# mouse PDGF-BB [5] = target: B1; assay: SPR, 37 C (listed in PK study table)
# human PDGF-AB [6] = target: T2, human PDGF-AB; assay: cell-based or functional assay; remark: listed apart in the source
# human PDGF-AB [7] = target: T2, human PDGF-AB; assay: cell-based or functional assay; remark: listed apart in the source
# [8] = target: B5; assay: cell-based or functional assay
# [9] = target: B5; assay: SPR (Bia-core), 37 C as headed
# mouse PDGF-BB [10] = target: B1; assay: SPR (Bia-core), 37 C as headed
# [11] = target: B5; assay: SPR (Bia-core), 37 C as headed; 37 C as headed
# rat PDGF-BB = target: T3, rat PDGF-BB (rat, UniProt Q05028 74-182); assay: SPR (Biacore T200 or MASS-2), mAb captured by anti-human Fc, 25 C
# T3 construct: also called rPDGF-BB
# Description: (§2) All binding studies were performed in 10 mM HEPES, 300 mM NaCl, and 0.05% v/v Surfactant Tween-20, pH 7.4 (HBS-P) running buffer at 25° C.
# (§3) The association rate (kₐ) and dissociation rate (kd) were determined by fitting the real-time binding sensorgrams to a 1:1 binding model with mass transport limitation using Scrubber 2.0c curve-fitting software. Binding dissociation equilibrium constant (KD) and dissociative half-life (t½) were calculated from the kinetic rates as: […]
# [12] = target: B5; assay: as above
# Description: as §2, §3
# human PDGF-AB [13] = target: T4, human PDGF-AB (human, UniProt P04085 87-211); assay: blocking ELISA: 100 pM Biot-PDGF-AB on 1 ug/ml hPDGFRb-mmH
# T4 construct: also called hPDGF-AB; hPDGF AB
# [14] = target: Cynomolgus monkey PDGF-BB (cynomolgus monkey (Macaca fascicularis), UniProt A0A2K5UX81 82-190); assay: cell-based or functional assay
# [15] = target: B4; assay: SPR 25C, mAb captured on anti-hFc; analyte Monkey PDGF-BB Fc homodimer-mouse Fc (IgG1) tag (Sino Biological)
# Description: The sample was injected at 25 uL/minute for 3 minutes and the dissociation was monitored for 10 minutes. The kinetics parameters were evaluated by fitting the real time data using 1:1 binding model with mass transport limitation.
# mouse PDGF-BB [16] = target: T5, mouse PDGF-BB (mouse, UniProt P31240 82-190, limits assumed); assay: SPR MASS-1, captured mAb, 37C
# T5 construct: also called mPDGF-BB; mPDGF-B
# Description: as §1
# [17] = target: mfPDGFRβ-ecto/hPDGFRb-cyto (monkey (mf); human, UniProt P09619 554-1106); assay: cell-based or functional assay
# Sequence of mfPDGFRβ-ecto/hPDGFRb-cyto (P09619 554-1106): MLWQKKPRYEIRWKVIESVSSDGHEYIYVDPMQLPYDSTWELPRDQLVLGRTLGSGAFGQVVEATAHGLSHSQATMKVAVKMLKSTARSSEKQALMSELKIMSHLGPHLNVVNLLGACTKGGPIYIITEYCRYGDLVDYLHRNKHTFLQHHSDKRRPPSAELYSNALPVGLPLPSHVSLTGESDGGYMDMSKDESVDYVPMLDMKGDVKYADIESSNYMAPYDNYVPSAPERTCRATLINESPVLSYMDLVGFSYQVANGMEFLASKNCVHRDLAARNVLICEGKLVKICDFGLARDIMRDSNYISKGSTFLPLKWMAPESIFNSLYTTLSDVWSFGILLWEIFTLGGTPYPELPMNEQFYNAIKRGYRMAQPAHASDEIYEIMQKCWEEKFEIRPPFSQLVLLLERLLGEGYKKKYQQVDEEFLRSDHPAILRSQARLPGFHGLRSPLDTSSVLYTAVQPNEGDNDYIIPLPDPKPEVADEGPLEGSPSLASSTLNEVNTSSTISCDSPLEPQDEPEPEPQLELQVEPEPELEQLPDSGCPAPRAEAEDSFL
# [18] = target: B5; assay: cell-based or functional assay; remark: listed apart in the source
# mouse PDGF-BB [19] = target: B1; assay: cell-based or functional assay
# [20] = target: B5; assay: SPR (Bia-core), 37 C as headed; remark: listed apart in the source
# mouse PDGF-BB [21] = target: B1; assay: SPR (Bia-core), 37 C as headed; remark: listed apart in the source
# mouse PDGF-BB [22] = target: B1; assay: SPR, captured mAb, 25 C
# Description: as §1
# [23] = target: B5; assay: SPR (Bia-core), 37 C as headed; 37 C as headed; remark: listed apart in the source
binder,measurement,setting,value
B1,"EC50 of ligand, SRE-luciferase in HEK293/SRE-luc/hPDGFRβ cells",[1],0.93 nM
same,"EC50 of ligand, SRE-luciferase in HEK293/SRE-luc/hPDGFRβ cells",[2],0.93 nM
B2,"A647 Intensity, internalization in PASMC, pre-blocking Ab: NA",human PDGF-AB [3],772000
same,Kd,mouse PDGF-BB [4],0.0867 nM
same,Kd,mouse PDGF-BB [5],0.0867 nM
same,"A647 Intensity, internalization in NHLF, pre-blocking Ab: NA",human PDGF-AB [6],679000
same,"(%) Inhibition, calcium flux in HLF cells, 1 nM ligand, Full Time Course",human PDGF-AB [7],63%
same,"IC50 (head printed IC51), SRE-luciferase, 500 pM mfPDGFBB",[8],8.9e-09 M
same,t1/2,[9],4.62 h
same,Kd,mouse PDGF-BB [10],0.0867 nM
same,Kd,[11],0.00967 nM
same,Kd,rat PDGF-BB,0.103 nM
same,t½,rat PDGF-BB,0.683 h
same,Kd,[12],0.00967 nM
same,t½,[12],4.62 h
B3,IC50,human PDGF-AB [13],14 nM
same,"IC50, luciferase in HEK293/SRE-Luc/mfPDGFRβ-ecto/hPDGFRb-cyto cells",[14],0.781 nM
same,Kd,[15],0.0256 nM
same,t½,[15],18.4 h
same,Kd,mouse PDGF-BB [16],0.0867 nM
B4,"EC50, luciferase in HEK293/SRE-Luc/mfPDGFRβ-ecto/hPDGFRb-cyto cells",[17],0.167 nM
B5,"EC50 of ligand, SRE-luciferase in HEK293/SRE-luc/hPDGFRβ cells",[1],0.064 nM
same,"EC50 of ligand, SRE-luciferase in HEK293/SRE-luc/hPDGFRβ cells",[2],0.064 nM
B6,"IC50 (head printed IC51), SRE-luciferase, 500 pM mfPDGFBB",[18],3.2e-10 M
same,"IC50, SRE-luciferase, 600 pM mPDGFBB",mouse PDGF-BB [19],4.5e-10 M
same,"A647 Intensity, internalization in PASMC, pre-blocking Ab: NA",human PDGF-AB [3],2.4e+07
same,t1/2,[20],12.8 h
same,Kd,mouse PDGF-BB [21],0.000954 nM
same,Kd,mouse PDGF-BB [4],0.000954 nM
same,Kd,mouse PDGF-BB [5],0.000954 nM
same,"A647 Intensity, internalization in NHLF, pre-blocking Ab: NA",human PDGF-AB [6],1.9e+07
same,Kd,mouse PDGF-BB [22],≤ 0.0023 nM
same,Kd,[23],0.0161 nM
same,Kd,rat PDGF-BB,0.125 nM
same,t½,rat PDGF-BB,0.682 h
same,Kd,[12],0.0161 nM
same,t½,[12],12.8 h
B7,Kd,[15],0.0268 nM
same,t½,[15],17.8 h
same,Kd,mouse PDGF-BB [16],0.000954 nM
